Experimental data taken from publication PMC4191077, “Modeling hemoglobin and hemoglobin:haptoglobin complex clearance in a non-rodent species–pharmacokinetic and therapeutic implications” (Frontiers in Physiology, 2014).

Target: T1, Dog haptoglobin (purified) (dog, UniProt P19006 1-83; P19006 85-329)
T1 construct: haptoglobin alpha chain, dog; haptoglobin beta chain, dog; The supplier is named only for the fluorescent labelling; also called dog Hp; source: bought: Lee Biosolutions (St. Louis, Missouri USA); copies: 2 + 2
T1 sequence (looked up) 1: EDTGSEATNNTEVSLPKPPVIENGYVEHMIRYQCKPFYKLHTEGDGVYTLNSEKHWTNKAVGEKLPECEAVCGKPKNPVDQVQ
T1 sequence (looked up) 2: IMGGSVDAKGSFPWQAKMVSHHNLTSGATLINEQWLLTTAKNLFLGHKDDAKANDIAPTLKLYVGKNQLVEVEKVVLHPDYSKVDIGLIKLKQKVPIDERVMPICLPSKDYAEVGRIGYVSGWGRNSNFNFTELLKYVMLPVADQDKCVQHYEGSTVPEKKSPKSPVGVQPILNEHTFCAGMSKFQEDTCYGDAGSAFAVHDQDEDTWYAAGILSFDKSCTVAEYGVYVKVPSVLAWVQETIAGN
Assay: SEC; purified standards of Hb and Hb:Hp complexes on a BioSep-SEC-S3000 column (600 x 7.5 mm), detection at 405 nm
Conditions: both partners purified

B1: Dog hemoglobin (natural protein)
chain 1: not shown
chain 2: not shown
notes: hemoglobin subunit alpha, dog; hemoglobin subunit beta, dog; also called dog Hb; purified dog Hb; source: prepared using a standardized method previously described (Palmer et al., 2009)
B1: binds.
